What was measured:
[1] = molecular target: the molecule itself; experiment: SEC; Superdex S200 10/300 Gl, 20 mM Tris pH 8, 150 mM NaCl, 0.2 mM TCEP; monomer and dimer peaks pooled separately and each run a second time
[2] = molecular target: the molecule itself; experiment: cryo-EM structure; F-actin (0.7 uM) put on the grid first, then 0.6 mg/ml (21 uM) HMP1/α-catenin FABD added and removed repeatedly; helical reconstruction at 3.36 Å

Protein | stoichiometry N [1] | binding result [2]
full-length human α-catenin (residues 1-906) (natural protein, UniProt P35221 1-906, looked up, cDNA from Open Biosystems; One construct that was isolated as a monomer pool and as a dimer pool; the dimer pool holds two copies of the chain; also called full-length monomeric human α-catenin; full-length dimeric human α-catenin; source: E. coli BL21(DE3), purified similar to HMP1/α-catenin; monomer and dimer SEC peaks pooled separately and run again on Superdex S200; not shown: GST, …) MTAVHAGNINFKWDPKSLEIRTLAVERLLEPLVTQVTTLVNTNSKGPSNKKRGRSKKAHVLAASVEQATENFLEKGDKIAKESQFLKEELVAAVEDVRKQGDLMKAAAGEFADDPCSSVKRGNMVRAARALLSAVTRLLILADMADVYKLLVQLKVVEDGILKLRNAGNEQDLGIQYKALKPEVDKLNIMAAKRQQELKDVGHRDQMAAARGILQKNVPILYTASQACLQHPDVAAYKANRDLIYKQLQQAVTGISNAAQATASDDASQHQGGGGGELAYALNNFDKQIIVDPLSFSEERFRPSLEERLESIISGAALMADSSCTRDDRRERIVAECNAVRQALQDLLSEYMGNAGRKERSDALNSAIDKMTKKTRDLRRQLRKAVMDHVSDSFLETNVPLLVLIEAAKNGNEKEVKEYAQVFREHANKLIEVANLACSISNNEEGVKLVRMSASQLEALCPQVINAALALAAKPQSKLAQENMDLFKEQWEKQVRVLTDAVDDITSIDDFLAVSENHILEDVNKCVIALQEKDVDGLDRTAGAIRGRAARVIHVVTSEMDNYEPGVYTEKVLEATKLLSNTVMPRFTEQVEAAVEALSSDPAQPMDENEFIDASRLVYDGIRDIRKAVLMIRTPEELDDSDFETEDFDVRSRTSVQTEDDQLIAGQSARAIMAQLPQEQKAKIAEQVASFQEEKSKLDAEVSKWDDSGNDIIVLAKQMCMIMMEMTDFTRGKGPLKNTSDVISAAKKIAEAGSRMDKLGRTIADHCPDSACKQDLLAYLQRIALYCHQLNICSKVKAEVQNLGGELVVSGVDSAMSLIQAAKNLMNAVVQTVKASYVASTKYQKSQGMASLNLPAVSWKMKAPEKKPLVKREKQDETQTKIKRASQKKHVNPVQALSEFKAMDSI | 2 | 
HMP1/α-catenin F-actin binding domain (FABD, residues 677-927) (domain or fragment, C. elegans, UniProt P90947 677-927, looked up, Cloned into pGEX-6P-1 with a PreScission site by DNA Custom Cloning; also called HMP1/α-catenin FABD; FABD of HMP1/α-catenin; source: E. coli BL21(DE3), purified as described for full-length HMP1/α-catenin; not shown: GST, N-terminal, cleaved) NLMRRLPEEEKKKIQAQIDIFKVTQTRFEREVAKWDETGNDIISLANNMCKIMMSMTEFTRGCGPLKTTMDVIRAAQEISLNGSKLNALARQIGEESADSQTKKDLLAYLSQITLYCQQLNICSKVKADVTQVGNELVVSALDSAMSLIQTARNLLTAVVQTVKAAYIASTKFRRPNANSVRVEWRMAPPKKQPLIRPQKNNAIIRRASERRPLQPAKVLAEFTRNEIETGRDSDDEELDRRHQQRINGRL |  | binds
